The results in this text go back to article PMC9308757.

One series concerns the target MBP-DDX3X (human, UniProt O00571 1-662). Kind of series: smFRET.
Another series addresses MBP-DDX3Y (human, UniProt O15523 1-660). Kind of series: smFRET.

Sequence of MBP-DDX3Y (O15523 whole entry): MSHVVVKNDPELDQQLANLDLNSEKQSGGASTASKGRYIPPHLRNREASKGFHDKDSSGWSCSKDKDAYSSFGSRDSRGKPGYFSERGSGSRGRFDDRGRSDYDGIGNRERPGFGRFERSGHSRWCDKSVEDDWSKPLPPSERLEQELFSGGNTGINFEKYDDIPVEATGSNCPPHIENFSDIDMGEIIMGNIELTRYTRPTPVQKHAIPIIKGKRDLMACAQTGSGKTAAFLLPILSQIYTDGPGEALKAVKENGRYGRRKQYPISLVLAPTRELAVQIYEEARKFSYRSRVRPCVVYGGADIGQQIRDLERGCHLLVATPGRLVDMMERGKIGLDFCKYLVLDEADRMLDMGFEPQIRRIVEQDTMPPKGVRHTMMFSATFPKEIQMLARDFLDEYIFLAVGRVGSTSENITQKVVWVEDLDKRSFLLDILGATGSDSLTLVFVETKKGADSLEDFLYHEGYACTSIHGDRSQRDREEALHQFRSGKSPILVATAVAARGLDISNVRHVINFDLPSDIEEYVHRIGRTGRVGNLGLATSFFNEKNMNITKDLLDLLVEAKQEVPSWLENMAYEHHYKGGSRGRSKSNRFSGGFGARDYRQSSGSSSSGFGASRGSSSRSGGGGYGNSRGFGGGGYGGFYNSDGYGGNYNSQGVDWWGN
Sequence of MBP-DDX3X (O00571 whole entry): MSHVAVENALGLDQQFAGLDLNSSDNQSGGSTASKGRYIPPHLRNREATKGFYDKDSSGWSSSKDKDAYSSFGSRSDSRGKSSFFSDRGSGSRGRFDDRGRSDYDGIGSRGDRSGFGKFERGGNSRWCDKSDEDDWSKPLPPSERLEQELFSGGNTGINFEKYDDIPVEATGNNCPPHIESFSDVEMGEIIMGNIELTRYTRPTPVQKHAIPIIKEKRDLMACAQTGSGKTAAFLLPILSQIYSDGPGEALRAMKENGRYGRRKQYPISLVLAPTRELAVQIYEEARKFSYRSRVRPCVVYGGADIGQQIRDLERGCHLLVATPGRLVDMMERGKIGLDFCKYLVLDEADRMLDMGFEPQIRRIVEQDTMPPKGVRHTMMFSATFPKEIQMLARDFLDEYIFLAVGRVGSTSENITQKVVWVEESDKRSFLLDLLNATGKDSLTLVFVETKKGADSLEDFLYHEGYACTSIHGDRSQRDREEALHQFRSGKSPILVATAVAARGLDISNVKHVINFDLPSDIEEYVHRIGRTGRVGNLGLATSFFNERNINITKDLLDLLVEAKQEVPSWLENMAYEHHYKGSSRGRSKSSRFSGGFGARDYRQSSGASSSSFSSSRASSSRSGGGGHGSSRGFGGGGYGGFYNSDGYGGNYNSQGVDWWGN

B1: smFRET dsRNA with 5' poly(U) overhang (dsRNA)
RNA 1: ACCGCUGCCGUCGCUCCG
RNA 2: UUUUUUUUUUUUUUUUUUUUUUUUUUUUUUUUUUUUUUUUUUUUUUUUUUCGGAGCGACGGCAGCGGU
With B1, the binding result with MBP-DDX3X and in the series with MBP-DDX3Y was “binds” in each case.
